# Reference: patent US20180112008A1 (Memorial Sloan Kettering, published 2018)
# Ends that are not written are not given here. * marks the point of attachment. GlcNAc2 = N-linked chitobiose, CC(=O)N[C@@H]1[C@@H](O)[C@H](O[C@@H]2O[C@H](CO)[C@@H](O)[C@H](O)[C@H]2NC(C)=O)[C@@H](CO)O[C@H]1*
# T1: biotinylated chitobiose-conjugated 18-mer glycopeptide (human, also: biotinylated, site not given here)
# T1 construct: Cys plus T22-V38 of MUC16^c114; The range is derived from T22-V38 and the statement that c114 is 1777-1890; also called (GlcNAc2)2-18-mer, biotinylated; 18-mer(chitobiose)2[C-T22-V38]
# T1 peptide: Ac-CTRN(GlcNAc2)GTQLQN(GlcNAc2)FTLDRSSV-NH2
# T2: MUC16 18mer (not fully specified)
# T2 construct: also called non-glycosylated 18-mer MUC16 peptide
# T2 peptide: CTRNGTQLQNFTLDRSSV
# T3: (GlcNAc2)2-18-mer glycopeptide, unconjugated (human)
# T3 construct: Used in ELISA without KLH; also called 18-mer(chitobiose)2[C-T22-V38]; 18mer-chitobiose peptide
# T3 peptide: Ac-CTRN(GlcNAc2)GTQLQN(GlcNAc2)FTLDRSSV-NH2
# T4: non-glycosylated 15-mer MUC16 peptide (human)
# T4 construct: Same peptide as the GlcNAc2-15-mer without the glycan; also called unglycosylated 15-mer
# T4 peptide: CGTQLQNFTLDRSSV
# T5: GlcNAc2-15-mer glycopeptide, unconjugated (human)
# T5 construct: Cys plus G25-V38 of MUC16^c114; Used in ELISA without KLH; also called 15-mer(chitobiose)[C-G25-V38]; 15mer-chitobiose peptide
# T5 peptide: Ac-CGTQLQN(GlcNAc2)FTLDRSSV-NH2
# T6: MUC16^c114-N2 (human, chain 1 pos 1 and pos 30: N-glycosylated Asn (cell-made glycans), written N)
# T6 construct: MUC16^c114 with Asn24 (Asn1800) changed to Ala, on SKOV3 cells; also called N24 mut c114; SKOV3-N24 mutc114; not shown: hrGFP of the phrGFP II-C vector, fused at the cytoplasmic carboxy-terminus
# T6 chain: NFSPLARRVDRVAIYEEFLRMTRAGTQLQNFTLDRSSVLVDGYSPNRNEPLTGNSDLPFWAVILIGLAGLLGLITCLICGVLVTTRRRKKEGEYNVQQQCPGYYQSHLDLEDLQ
# T7: MUC16^c114-N123 (human, All three N-glycosylation sites (pos 1, 24, 30) are mutated to Ala; none is left in the ectodomain.)
# T7 construct: MUC16^c114 with Asn1, Asn24 and Asn30 changed to Ala, on SKOV3 or 3T3 cells; also called N1-N24-N30 mut c114; SKOV3-N1-N24-N30mutc114; not shown: hrGFP of the phrGFP II-C vector, fused at the cytoplasmic carboxy-terminus
# T7 chain: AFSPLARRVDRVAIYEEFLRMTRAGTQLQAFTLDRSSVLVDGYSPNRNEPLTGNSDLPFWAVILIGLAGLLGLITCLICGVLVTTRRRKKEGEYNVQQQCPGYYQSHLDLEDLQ
# T8: MUC16^c114-N1 (human, chain 1 pos 24 and pos 30: N-glycosylated Asn (cell-made glycans), written N)
# T8 construct: MUC16^c114 with Asn1 (Asn1777) changed to Ala, on SKOV3 cells; also called N1 mut c114; SKOV3 MUC16^c114-N1; not shown: hrGFP of the phrGFP II-C vector, fused at the cytoplasmic carboxy-terminus
# T8 chain: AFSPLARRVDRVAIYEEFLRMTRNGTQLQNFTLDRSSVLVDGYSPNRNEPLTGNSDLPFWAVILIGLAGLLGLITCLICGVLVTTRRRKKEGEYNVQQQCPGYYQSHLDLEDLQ
# T9: MUC16^c114-N3 (human, chain 1 pos 1 and pos 24: N-glycosylated Asn (cell-made glycans), written N)
# T9 construct: MUC16^c114 with Asn30 (Asn1806) changed to Ala, on SKOV3 cells; also called N30 mut c114; SKOV3-N30 mutc114; not shown: hrGFP of the phrGFP II-C vector, fused at the cytoplasmic carboxy-terminus
# T9 chain: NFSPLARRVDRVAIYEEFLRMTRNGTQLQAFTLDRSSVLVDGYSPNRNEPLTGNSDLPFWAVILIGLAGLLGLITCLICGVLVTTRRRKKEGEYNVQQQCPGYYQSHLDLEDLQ
# T10: MUC16 nonglycosylated peptide 2 (human)
# T10 construct: Peptide used to elicit the 4H11 antibody; also called nonglycosylated MUC16 peptide 2
# T10 peptide: CTLDRSSVLVDGYSPNRNE
# T11: MUC16^c344 (human, N- and O-glycosylation sites ; chain 1 pos 231, 254 and 260 (N1, N24, N30 of c114): N-glycosylated Asn, written N; further N- and O-glycosylation sites in the tandem-repeat part)
# T11 construct: also called MUC16^c344-GFP; SKOV3-c344; not shown: hrGFP of the phrGFP II-C vector, fused at the cytoplasmic carboxy-terminus
# T11 chain: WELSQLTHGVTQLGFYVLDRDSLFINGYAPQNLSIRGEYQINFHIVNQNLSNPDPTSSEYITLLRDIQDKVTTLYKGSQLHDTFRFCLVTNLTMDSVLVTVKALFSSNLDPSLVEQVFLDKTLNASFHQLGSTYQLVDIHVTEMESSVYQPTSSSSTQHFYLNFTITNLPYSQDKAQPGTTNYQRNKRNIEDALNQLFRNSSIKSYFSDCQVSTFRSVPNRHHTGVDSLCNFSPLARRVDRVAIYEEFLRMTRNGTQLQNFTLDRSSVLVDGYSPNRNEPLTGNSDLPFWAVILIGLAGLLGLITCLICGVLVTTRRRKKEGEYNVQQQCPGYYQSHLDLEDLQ
# T12: MUC16^c86
# T12 construct: also called Internal Deletion
# T12 single chain: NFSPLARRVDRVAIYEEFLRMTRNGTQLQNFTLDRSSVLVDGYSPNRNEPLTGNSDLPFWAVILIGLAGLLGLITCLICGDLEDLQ
# T13: MUC16^c80
# T13 construct: also called External Deletion
# T13 single chain: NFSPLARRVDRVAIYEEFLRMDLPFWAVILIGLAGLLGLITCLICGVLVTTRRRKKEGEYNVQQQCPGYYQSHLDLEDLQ
# B1: 16C5.C1 (antibody, V domains shown)
# VH: QVTLKESGPGILQPSQTLSLTCSFSGFSLNTLGMGVGWIRQPSGKGLEWLAHIWWDDDKYYYPALKSRLTISRDTSKNQVFLKIANVDTADTATYYCARIGTAQATDALDYWGQGTSVTVSS
# VL: ELDMTQTPPSLSASVGETVRIRCLASEDIYSGISWYQQKPGKPPTLLIYGASNLESGVPPRFSGSGSGTDYTLTIGGVQAEDAATYYCLGGYSYSSTLTFGAGTNVEIK
# notes: Mouse monoclonal from a hybridoma
# B2: 4H11 (antibody, V domains shown)
# VH: EVKLQESGGGFVKPGGSLKVSCAASGFTFSSYAMSWVRLSPEMRLEWVATISSAGGYIFYSDSVQGRFTISRDNAKNTLHLQMGSLRSGDTAMYYCARQGFGNYGDYYAMDYWGQGTTVTVSS
# VL: DIELTQSPSSLAVSAGEKVTMSCKSSQSLLNSRTRKNQLAWYQQKPGQSPELLIYWASTRQSGVPDRFTGSGSGTDFTLTISSVQAEDLAVYYCQQSYNLLTFGPGTKLEVK
# B3: MUC16^c114 (other)
# chain: NFSPLARRVDRVAIYEEFLRMTRNGTQLQNFTLDRSSVLVDGYSPNRNEPLTGNSDLPFWAVILIGLAGLLGLITCLICGVLVTTRRRKKEGEYNVQQQCPGYYQSHLDLEDLQ
# modifications: capable of N-glycosylation at Asn1, Asn24 and Asn30 ; chain 1 pos 1, 24, 30: Asn capable of N-glycosylation on the transfected cells, written N
# notes: The forward primer adds Met-Val before Asn1; also called MUC16^c114-GFP; SKOV3 MUC16^c114; not shown: hrGFP of the phrGFP II-C vector fused at the cytoplasmic carboxy-terminus, with its short cloning linker
# Experiments:
# MUC16^c114 (human) [1] = assay: FACS, SKOV3-c114
# [2] = molecular target: (GlcNAc2)2-18-mer glycopeptide, unconjugated (human); assay: sandwich ELISA on 'MUC16 18mer + GlcNAc2'; Blank 0.029
# [3] = molecular target: (GlcNAc2)2-18-mer glycopeptide, unconjugated (human); assay: ELISA 12/24/13 (sups from time of freezing), neat, column 18S
# [4] = molecular target: MUC16 unrelated peptide 18mer; assay: sandwich ELISA on 'MUC16 unrelated peptide 18mer'; Blank 0.013
# MUC16 18mer [5] = assay: ELISA 12/24/13 (sups from time of freezing), neat, column 18
# MUC16 18mer [6] = assay: sandwich ELISA on 'MUC16 18mer'; Blank 0.032
# MUC16^c114 (human) [7] = assay: FACS of transfected cells; vector control phrGFP 3.7; cell line not given
# MUC16^c114 (human) [8] = assay: FACS of transfected cells; vector control phrGFP 11.4; cell line not given
# [9] = molecular target: non-glycosylated 15-mer MUC16 peptide (human); assay: ELISA 12/24/13 (sups from time of freezing), neat, column 15
# [10] = molecular target: GlcNAc2-15-mer glycopeptide, unconjugated (human); assay: sandwich ELISA on 'MUC16 15mer + GlcNAc2'; Blank 0.019
# MUC16^c114 (human) [11] = assay: FACS of transfected cells; vector control phrGFP 7.9; cell line not given
# [12] = molecular target: non-glycosylated 15-mer MUC16 peptide (human); assay: sandwich ELISA on 'MUC16 15mer'; Blank 0.021
# [13] = molecular target: MUC16^c114 on SKOV3 cells with MGAT5 knock-down (human); assay: FACS, SKOV3-shMGAT5-c114
# [14] = molecular target: MUC16 unrelated peptide 18mer+GlcNAc2; assay: sandwich ELISA on 'MUC16 unrelated 18mer + GlcNAc2'; Blank 0.014
# [15] = molecular target: GlcNAc2-15-mer glycopeptide, unconjugated (human); assay: ELISA 12/24/13 (sups from time of freezing), neat, column 15S
# MUC16^c114 (human) [16] = assay: FACS, SKOV3 transfectant, goat anti-mouse IgG-PE
# [17] = molecular target: T1, biotinylated chitobiose-conjugated …; assay: BLI (Octet QK), biotinylated glycopeptide on streptavidin sensor, antibody 10 ug/mL, 1:1 model
# Method: Binding affinity was determined using ForeBio Octet QK. 5 μg/mL of biotinylated chitobiose-conjugated 18-mer glycopeptide was loaded onto a streptavidin biosensor. After washing off excess antigen, mouse antibodies were tested at 10 μg/mL for association and dissociation steps, respectively. Binding parameters were calculated using 1:1 binding site model, partial fit.
# MUC16 18mer [18] = molecular target: T2, MUC16 18mer; assay: ELISA during fusion screen, dilution 400, column 18
# [19] = molecular target: T3, (GlcNAc2)2-18-mer glycopeptide, …; assay: ELISA during fusion screen, dilution 400, column 18S
# MUC16 18mer [20] = molecular target: T2, MUC16 18mer; assay: ELISA 12/24/13 (sups from time of freezing), dilution 400, column 18
# [21] = molecular target: T4, non-glycosylated 15-mer MUC16 peptide; assay: ELISA 12/24/13 (sups from time of freezing), dilution 400, column 15
# [22] = molecular target: T5, GlcNAc2-15-mer glycopeptide, …; assay: ELISA 12/24/13 (sups from time of freezing), dilution 400, column 15S
# [23] = molecular target: T3, (GlcNAc2)2-18-mer glycopeptide, …; assay: ELISA 12/24/13 (sups from time of freezing), dilution 400, column 18S
# MUC16^c114-N2 = molecular target: T6, MUC16^c114-N2; assay: FACS, SKOV3-N24 mutc114
# MUC16^c114-N123 = molecular target: T7, MUC16^c114-N123; assay: FACS, SKOV3 transfectant, goat anti-mouse IgG-PE
# MUC16^c114-N1 = molecular target: T8, MUC16^c114-N1; assay: FACS, SKOV3 transfectant, goat anti-mouse IgG-PE
# MUC16^c114-N3 = molecular target: T9, MUC16^c114-N3; assay: FACS, SKOV3 transfectant, goat anti-mouse IgG-PE
# [24] = molecular target: T10, MUC16 nonglycosylated peptide 2; assay: sandwich ELISA on 'MUC16 Nonglycosylated Peptide2'; Blank 0.029
# MUC16^c344 = molecular target: T11, MUC16^c344; assay: FACS of transfected cells; vector control phrGFP 11.4; cell line not given
# MUC16^c86 = molecular target: T12, MUC16^c86; assay: as above
# MUC16^c80 = molecular target: T13, MUC16^c80; assay: as above
# [25] = molecular target: HER3 (endogenous, MUC16^c114-expressing 3T3 cells) (Mus musculus (Mouse), UniProt Q61526 20-1339); assay: co-precipitation from MUC16^c114-expressing 3T3 cells with MUC16-targeting antibodies, western blot
# Chain of HER3 (endogenous, MUC16^c114-expressing 3T3 cells) (Q61526 20-1339 limits assumed): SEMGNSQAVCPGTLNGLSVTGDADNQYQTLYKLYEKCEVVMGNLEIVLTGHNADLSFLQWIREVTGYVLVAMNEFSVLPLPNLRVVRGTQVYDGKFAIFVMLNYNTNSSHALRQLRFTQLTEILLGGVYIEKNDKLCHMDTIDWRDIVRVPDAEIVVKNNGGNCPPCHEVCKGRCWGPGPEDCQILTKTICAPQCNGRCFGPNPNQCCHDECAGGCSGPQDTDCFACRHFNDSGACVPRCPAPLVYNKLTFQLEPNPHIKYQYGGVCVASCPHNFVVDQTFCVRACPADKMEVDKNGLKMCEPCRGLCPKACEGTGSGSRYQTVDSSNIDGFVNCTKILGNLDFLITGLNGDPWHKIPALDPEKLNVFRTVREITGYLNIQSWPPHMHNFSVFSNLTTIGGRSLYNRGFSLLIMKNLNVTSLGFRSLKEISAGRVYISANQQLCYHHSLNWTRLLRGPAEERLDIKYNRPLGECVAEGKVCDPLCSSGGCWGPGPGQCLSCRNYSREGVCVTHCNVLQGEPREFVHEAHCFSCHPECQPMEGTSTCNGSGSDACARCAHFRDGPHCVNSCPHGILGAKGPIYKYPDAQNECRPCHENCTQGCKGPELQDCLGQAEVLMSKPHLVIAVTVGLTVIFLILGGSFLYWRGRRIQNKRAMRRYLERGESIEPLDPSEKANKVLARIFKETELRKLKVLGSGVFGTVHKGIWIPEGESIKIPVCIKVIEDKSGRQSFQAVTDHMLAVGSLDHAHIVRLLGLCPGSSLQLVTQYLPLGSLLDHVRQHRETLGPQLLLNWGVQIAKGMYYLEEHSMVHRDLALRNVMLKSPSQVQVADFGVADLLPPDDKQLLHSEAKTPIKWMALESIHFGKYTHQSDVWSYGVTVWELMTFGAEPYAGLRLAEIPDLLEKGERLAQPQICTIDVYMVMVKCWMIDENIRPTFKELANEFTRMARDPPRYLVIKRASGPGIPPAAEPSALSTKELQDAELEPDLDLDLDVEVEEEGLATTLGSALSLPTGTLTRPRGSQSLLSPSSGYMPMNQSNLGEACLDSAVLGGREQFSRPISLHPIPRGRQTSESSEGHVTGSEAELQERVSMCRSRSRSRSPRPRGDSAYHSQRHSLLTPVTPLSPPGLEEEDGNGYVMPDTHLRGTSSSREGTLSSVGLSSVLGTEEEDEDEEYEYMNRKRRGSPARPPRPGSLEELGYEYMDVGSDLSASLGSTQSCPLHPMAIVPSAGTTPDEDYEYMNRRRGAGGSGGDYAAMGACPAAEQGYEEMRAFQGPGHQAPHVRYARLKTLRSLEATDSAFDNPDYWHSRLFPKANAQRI
# [26] = molecular target: EGFR (endogenous, MUC16^c114-expressing 3T3 cells) (Mus musculus (Mouse), UniProt Q01279 25-1210); assay: as above
molecule,measurement,setting,value
4H11 (antibody),geometric mean phycoerythrin (PE) fluorescence,MUC16^c114 (human) [1],1120
same,ELISA signal,[2],0.063
same,ELISA signal,[3],0.02
same,ELISA signal,[4],0.045
same,ELISA signal,MUC16 18mer [5],0.02
same,ELISA signal,MUC16 18mer [6],0.076
same,% 4H11-PE Positives,MUC16^c114 (human) [7],19.3%
same,% 4H11-PE Positives,MUC16^c114 (human) [8],51.7%
same,ELISA signal,[9],0.02
same,ELISA signal,[10],0.06
same,% 4H11-PE Positives,MUC16^c114 (human) [11],28.4%
same,ELISA signal,[12],0.049
same,geometric mean phycoerythrin (PE) fluorescence,[13],2380
same,ELISA signal,[14],0.038
same,ELISA signal,[15],0.02
same,Mean % PE,MUC16^c114 (human) [16],85.7%
B1,Kd,[17],25.7 nM
same,koff,[17],0.00172 s⁻¹
same,ELISA signal,MUC16 18mer [18],0.24
same,ELISA signal,[19],0.36
same,ELISA signal,MUC16 18mer [20],0.63
same,ELISA signal,[21],0.62
same,ELISA signal,[22],0.23
same,ELISA signal,[23],0.68
B2,geometric mean phycoerythrin (PE) fluorescence,MUC16^c114-N2,2650
same,Mean % PE,MUC16^c114-N123,32.3%
same,Mean % PE,MUC16^c114-N1,91.5%
same,Mean % PE,MUC16^c114-N3,15.6%
same,ELISA signal,[24],2.14
same,% 4H11-PE Positives,MUC16^c344,34.4%
same,% 4H11-PE Positives,MUC16^c86,27.4%
same,% 4H11-PE Positives,MUC16^c80,16.7%
B3,binding result,[25],no binding
same,binding result,[26],no binding
